Test results reported in patent US20240270846A1 (published 2024).

target: T1, CD3 epsilon homodimer protein (UniProt P07766 23-126); test: SPR Biacore T200, antibody over immobilised CD3e homodimer;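 further: CD3 epsilon homodimer amine-coupled on a CM4 chip, run at 25 °C in HBS-EP+, Z = bound amount of each single-residue H chain variant over that of the parent antibody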
T1 construct: also called CD3 (CD3 epsilon)
T1 sequence (P07766 23-126): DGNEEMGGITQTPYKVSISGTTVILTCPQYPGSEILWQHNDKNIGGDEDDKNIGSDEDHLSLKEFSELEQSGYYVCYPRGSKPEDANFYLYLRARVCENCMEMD

Row | Binder | ratio of amounts bound (Z=Y/X vs CE115HA000)
1 | CE115HA000 S62K one-arm antibody (antibody, human IgG1, kappa, L234A L235A, N297A, name in Kabat numbering, one-arm antibody) heavy: QVQLVESGGGVVQPGRSLRLSCAASGFTFSNAWMHWVRQAPGKGLEWVAQIKAKSNNYATYYAEKVKGRFTISRDDSKNSLYLQMNSLKTEDTAVYYCRYVHYGAYYGVDAWGQGTTVTVSSASTKGPSVFPLAPSSKSTSGGTAALGCLVKDYFPEPVTVSWNSGALTSGVHTFPAVLQSSGLYSLSSVVTVPSSSLGTQTYICNVNHKPSNTKVDKKVEPKSCDKTHTCPPCPAPEAAGGPSVFLFPPKPKDTLMISRTPEVTCVVVDVSHEDPEVKFNWYVDGVEVHNAKTKPREEQYASTYRVVSVLTVLHQDWLNGKEYKCKVSNKALPAPIEKTISKAKGQPREPQVYTLPPSRCELTKNQVSLSCAVKGFYPSDIAVEWESNGQPENNYKTTPPVLDSDGSFFLVSKLTVDKSRWQQGNVFSCSVMHEALHNHYTQKSLSLSPDYKDDDDK EPKSSDKTHTCPPCPAPELLGGPSVFLFPPKPKDTLMISRTPEVTCVVVDVSHEDPEVKFNWYVDGVEVHNAKTKPREEQYNSTYRVVSVLTVLHQDWLNGKEYKCKVSNKALPAPIEKTISKAKGQPREPQVCTLPPSRDELTKNQVSLWCLVKGFYPSDIAVEWESNGQPENNYKTTPPVLDSDGSFFLYSKLTVDKSRWQQGNVFSCSVMHEALHNRYTQKSLSLSP light: DIVMTQSPLSLPVTPGEPASISCRSSQSLVHSNRNTYLHWYQQKPGQAPRLLIYKVSNRFSGVPDRFSGSGSGTDFTLKISRVEAEDVGVYYCGQGTQVPYTFGQGTKLEIKRTVAAPSVFIFPPSDEQLKSGTASVVCLLNNFYPREAKVQWKVDNALQSGNSQESVTEQDSKDSTYSLSSTLTLSKADYEKHKVYACEVTHQGLSSPVTKSFNRGEC | 1.19
2 | CE115HA000 S74A one-arm antibody (antibody, human IgG1, kappa, L234A L235A, N297A, name in Kabat numbering, one-arm antibody) heavy: QVQLVESGGGVVQPGRSLRLSCAASGFTFSNAWMHWVRQAPGKGLEWVAQIKAKSNNYATYYAESVKGRFTISRDDAKNSLYLQMNSLKTEDTAVYYCRYVHYGAYYGVDAWGQGTTVTVSSASTKGPSVFPLAPSSKSTSGGTAALGCLVKDYFPEPVTVSWNSGALTSGVHTFPAVLQSSGLYSLSSVVTVPSSSLGTQTYICNVNHKPSNTKVDKKVEPKSCDKTHTCPPCPAPEAAGGPSVFLFPPKPKDTLMISRTPEVTCVVVDVSHEDPEVKFNWYVDGVEVHNAKTKPREEQYASTYRVVSVLTVLHQDWLNGKEYKCKVSNKALPAPIEKTISKAKGQPREPQVYTLPPSRCELTKNQVSLSCAVKGFYPSDIAVEWESNGQPENNYKTTPPVLDSDGSFFLVSKLTVDKSRWQQGNVFSCSVMHEALHNHYTQKSLSLSPDYKDDDDK EPKSSDKTHTCPPCPAPELLGGPSVFLFPPKPKDTLMISRTPEVTCVVVDVSHEDPEVKFNWYVDGVEVHNAKTKPREEQYNSTYRVVSVLTVLHQDWLNGKEYKCKVSNKALPAPIEKTISKAKGQPREPQVCTLPPSRDELTKNQVSLWCLVKGFYPSDIAVEWESNGQPENNYKTTPPVLDSDGSFFLYSKLTVDKSRWQQGNVFSCSVMHEALHNRYTQKSLSLSP light: DIVMTQSPLSLPVTPGEPASISCRSSQSLVHSNRNTYLHWYQQKPGQAPRLLIYKVSNRFSGVPDRFSGSGSGTDFTLKISRVEAEDVGVYYCGQGTQVPYTFGQGTKLEIKRTVAAPSVFIFPPSDEQLKSGTASVVCLLNNFYPREAKVQWKVDNALQSGNSQESVTEQDSKDSTYSLSSTLTLSKADYEKHKVYACEVTHQGLSSPVTKSFNRGEC | 1.05
3 | CE115HA000 T57A one-arm antibody (antibody, human IgG1, kappa, L234A L235A, N297A, name in Kabat numbering, one-arm antibody) heavy: QVQLVESGGGVVQPGRSLRLSCAASGFTFSNAWMHWVRQAPGKGLEWVAQIKAKSNNYAAYYAESVKGRFTISRDDSKNSLYLQMNSLKTEDTAVYYCRYVHYGAYYGVDAWGQGTTVTVSSASTKGPSVFPLAPSSKSTSGGTAALGCLVKDYFPEPVTVSWNSGALTSGVHTFPAVLQSSGLYSLSSVVTVPSSSLGTQTYICNVNHKPSNTKVDKKVEPKSCDKTHTCPPCPAPEAAGGPSVFLFPPKPKDTLMISRTPEVTCVVVDVSHEDPEVKFNWYVDGVEVHNAKTKPREEQYASTYRVVSVLTVLHQDWLNGKEYKCKVSNKALPAPIEKTISKAKGQPREPQVYTLPPSRCELTKNQVSLSCAVKGFYPSDIAVEWESNGQPENNYKTTPPVLDSDGSFFLVSKLTVDKSRWQQGNVFSCSVMHEALHNHYTQKSLSLSPDYKDDDDK EPKSSDKTHTCPPCPAPELLGGPSVFLFPPKPKDTLMISRTPEVTCVVVDVSHEDPEVKFNWYVDGVEVHNAKTKPREEQYNSTYRVVSVLTVLHQDWLNGKEYKCKVSNKALPAPIEKTISKAKGQPREPQVCTLPPSRDELTKNQVSLWCLVKGFYPSDIAVEWESNGQPENNYKTTPPVLDSDGSFFLYSKLTVDKSRWQQGNVFSCSVMHEALHNRYTQKSLSLSP light: DIVMTQSPLSLPVTPGEPASISCRSSQSLVHSNRNTYLHWYQQKPGQAPRLLIYKVSNRFSGVPDRFSGSGSGTDFTLKISRVEAEDVGVYYCGQGTQVPYTFGQGTKLEIKRTVAAPSVFIFPPSDEQLKSGTASVVCLLNNFYPREAKVQWKVDNALQSGNSQESVTEQDSKDSTYSLSSTLTLSKADYEKHKVYACEVTHQGLSSPVTKSFNRGEC | 0.98
4 | CE115HA000 T28D one-arm antibody (antibody, human IgG1, kappa, L234A L235A, N297A, name in Kabat numbering, one-arm antibody) heavy: QVQLVESGGGVVQPGRSLRLSCAASGFDFSNAWMHWVRQAPGKGLEWVAQIKAKSNNYATYYAESVKGRFTISRDDSKNSLYLQMNSLKTEDTAVYYCRYVHYGAYYGVDAWGQGTTVTVSSASTKGPSVFPLAPSSKSTSGGTAALGCLVKDYFPEPVTVSWNSGALTSGVHTFPAVLQSSGLYSLSSVVTVPSSSLGTQTYICNVNHKPSNTKVDKKVEPKSCDKTHTCPPCPAPEAAGGPSVFLFPPKPKDTLMISRTPEVTCVVVDVSHEDPEVKFNWYVDGVEVHNAKTKPREEQYASTYRVVSVLTVLHQDWLNGKEYKCKVSNKALPAPIEKTISKAKGQPREPQVYTLPPSRCELTKNQVSLSCAVKGFYPSDIAVEWESNGQPENNYKTTPPVLDSDGSFFLVSKLTVDKSRWQQGNVFSCSVMHEALHNHYTQKSLSLSPDYKDDDDK EPKSSDKTHTCPPCPAPELLGGPSVFLFPPKPKDTLMISRTPEVTCVVVDVSHEDPEVKFNWYVDGVEVHNAKTKPREEQYNSTYRVVSVLTVLHQDWLNGKEYKCKVSNKALPAPIEKTISKAKGQPREPQVCTLPPSRDELTKNQVSLWCLVKGFYPSDIAVEWESNGQPENNYKTTPPVLDSDGSFFLYSKLTVDKSRWQQGNVFSCSVMHEALHNRYTQKSLSLSP light: DIVMTQSPLSLPVTPGEPASISCRSSQSLVHSNRNTYLHWYQQKPGQAPRLLIYKVSNRFSGVPDRFSGSGSGTDFTLKISRVEAEDVGVYYCGQGTQVPYTFGQGTKLEIKRTVAAPSVFIFPPSDEQLKSGTASVVCLLNNFYPREAKVQWKVDNALQSGNSQESVTEQDSKDSTYSLSSTLTLSKADYEKHKVYACEVTHQGLSSPVTKSFNRGEC | 0.56
5 | CE115HA000 T57I one-arm antibody (antibody, human IgG1, kappa, L234A L235A, N297A, name in Kabat numbering, one-arm antibody) heavy: QVQLVESGGGVVQPGRSLRLSCAASGFTFSNAWMHWVRQAPGKGLEWVAQIKAKSNNYAIYYAESVKGRFTISRDDSKNSLYLQMNSLKTEDTAVYYCRYVHYGAYYGVDAWGQGTTVTVSSASTKGPSVFPLAPSSKSTSGGTAALGCLVKDYFPEPVTVSWNSGALTSGVHTFPAVLQSSGLYSLSSVVTVPSSSLGTQTYICNVNHKPSNTKVDKKVEPKSCDKTHTCPPCPAPEAAGGPSVFLFPPKPKDTLMISRTPEVTCVVVDVSHEDPEVKFNWYVDGVEVHNAKTKPREEQYASTYRVVSVLTVLHQDWLNGKEYKCKVSNKALPAPIEKTISKAKGQPREPQVYTLPPSRCELTKNQVSLSCAVKGFYPSDIAVEWESNGQPENNYKTTPPVLDSDGSFFLVSKLTVDKSRWQQGNVFSCSVMHEALHNHYTQKSLSLSPDYKDDDDK EPKSSDKTHTCPPCPAPELLGGPSVFLFPPKPKDTLMISRTPEVTCVVVDVSHEDPEVKFNWYVDGVEVHNAKTKPREEQYNSTYRVVSVLTVLHQDWLNGKEYKCKVSNKALPAPIEKTISKAKGQPREPQVCTLPPSRDELTKNQVSLWCLVKGFYPSDIAVEWESNGQPENNYKTTPPVLDSDGSFFLYSKLTVDKSRWQQGNVFSCSVMHEALHNRYTQKSLSLSP light: DIVMTQSPLSLPVTPGEPASISCRSSQSLVHSNRNTYLHWYQQKPGQAPRLLIYKVSNRFSGVPDRFSGSGSGTDFTLKISRVEAEDVGVYYCGQGTQVPYTFGQGTKLEIKRTVAAPSVFIFPPSDEQLKSGTASVVCLLNNFYPREAKVQWKVDNALQSGNSQESVTEQDSKDSTYSLSSTLTLSKADYEKHKVYACEVTHQGLSSPVTKSFNRGEC | 0.61
6 | CE115HA000 T28S one-arm antibody (antibody, human IgG1, kappa, L234A L235A, N297A, name in Kabat numbering, one-arm antibody) heavy: QVQLVESGGGVVQPGRSLRLSCAASGFSFSNAWMHWVRQAPGKGLEWVAQIKAKSNNYATYYAESVKGRFTISRDDSKNSLYLQMNSLKTEDTAVYYCRYVHYGAYYGVDAWGQGTTVTVSSASTKGPSVFPLAPSSKSTSGGTAALGCLVKDYFPEPVTVSWNSGALTSGVHTFPAVLQSSGLYSLSSVVTVPSSSLGTQTYICNVNHKPSNTKVDKKVEPKSCDKTHTCPPCPAPEAAGGPSVFLFPPKPKDTLMISRTPEVTCVVVDVSHEDPEVKFNWYVDGVEVHNAKTKPREEQYASTYRVVSVLTVLHQDWLNGKEYKCKVSNKALPAPIEKTISKAKGQPREPQVYTLPPSRCELTKNQVSLSCAVKGFYPSDIAVEWESNGQPENNYKTTPPVLDSDGSFFLVSKLTVDKSRWQQGNVFSCSVMHEALHNHYTQKSLSLSPDYKDDDDK EPKSSDKTHTCPPCPAPELLGGPSVFLFPPKPKDTLMISRTPEVTCVVVDVSHEDPEVKFNWYVDGVEVHNAKTKPREEQYNSTYRVVSVLTVLHQDWLNGKEYKCKVSNKALPAPIEKTISKAKGQPREPQVCTLPPSRDELTKNQVSLWCLVKGFYPSDIAVEWESNGQPENNYKTTPPVLDSDGSFFLYSKLTVDKSRWQQGNVFSCSVMHEALHNRYTQKSLSLSP light: DIVMTQSPLSLPVTPGEPASISCRSSQSLVHSNRNTYLHWYQQKPGQAPRLLIYKVSNRFSGVPDRFSGSGSGTDFTLKISRVEAEDVGVYYCGQGTQVPYTFGQGTKLEIKRTVAAPSVFIFPPSDEQLKSGTASVVCLLNNFYPREAKVQWKVDNALQSGNSQESVTEQDSKDSTYSLSSTLTLSKADYEKHKVYACEVTHQGLSSPVTKSFNRGEC | 0.91
